Test [1] deals with human GLP-1 receptor (hGLP-1R) (human, UniProt P43220 24-463). Briefly: cell-based or functional assay.
Test [2] has as its target human glucagon receptor (hGCGR) (human, UniProt P47871 26-477). The experiment in a line: cell-based or functional assay.

Starred links: 1 amine or outer side, 2 acyl side, 3 side chain; linkers in the order of their positions; H or OH if unused. Non-standard residues stand in square brackets, D forms with d. Groups on a side chain read outwards from the residue. No end group written: not given here. *: point of attachment. γGlu = O=C(O)[C@H](CCC(=O)[*:2])N[*:1]; Stearoyl = CCCCCCCCCCCCCCCCCC(=O)*; Palmitoyl = CCCCCCCCCCCCCCCC(=O)*; αMeF = C[C@](N)(Cc1ccccc1)C(=O)O; (PEG)2 = polyethylene glycol 2; AEEA = NCCOCCOCC(=O)O; Aib = CC(C)(N)C(=O)O

Sequence of human glucagon receptor (hGCGR) (P47871 26-477): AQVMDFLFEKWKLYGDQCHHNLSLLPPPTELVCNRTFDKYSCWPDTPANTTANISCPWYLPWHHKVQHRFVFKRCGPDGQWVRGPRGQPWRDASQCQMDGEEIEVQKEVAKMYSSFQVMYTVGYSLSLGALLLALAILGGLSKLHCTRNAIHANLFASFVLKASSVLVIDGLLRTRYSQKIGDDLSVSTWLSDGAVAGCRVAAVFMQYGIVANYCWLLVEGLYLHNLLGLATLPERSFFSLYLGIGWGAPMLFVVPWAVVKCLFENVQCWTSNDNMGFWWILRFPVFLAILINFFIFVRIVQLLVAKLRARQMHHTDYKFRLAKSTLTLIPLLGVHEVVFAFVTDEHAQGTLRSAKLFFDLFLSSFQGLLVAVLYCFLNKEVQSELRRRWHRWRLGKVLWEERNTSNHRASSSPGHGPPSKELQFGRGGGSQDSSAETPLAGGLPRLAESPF

Regarding HSQGS[αMeF]TSDVSKK([AEEA-AEEA-γGlu-γGlu-Stearoyl])LDSQAAQD[αMeF]VE[Aib]LANT-NH2 [Peptide 404 (of Table 10, position 13)], the “hGLP-1R EC50 (pM); cAMP production” value in test [1] came out at 5.65 pM. In addition, in test [2], the “hGluc-R EC50 (pM); cAMP production” value was 21.8 pM.

Turning to H[Aib]QGS[αMeF]TSDVSKK([(PEG)2-(PEG)2-γGlu-Palmitoyl])LDSRAAQD[αMeF]VEWIANT-NH2 [Peptide 402 (of Table 10, position 13)], the “hGLP-1R EC50 (pM); cAMP production” value in test [1] was 1.04 pM. In test [2], the “hGluc-R EC50 (pM); cAMP production” value came to 18.1 pM.

Source of the values: patent US20230357348A1 (AstraZeneca / MedImmune, published 2023).
